The experiment has as its target WT1 peptide … (VLD peptide) pulsed on OCI-AML3 target cells. The experiment can be described thus: cell-based or functional assay.

From patent publication US20230183753A1 (INTELLIA THERAPEUTICS, published 2023) come the findings set out here.

B1: WT1 targeting transgenic T cell receptor (tgTCR) (TCR, V domains shown)
V domain 1: DAGVIQSPRHEVTEMGQEVTLRCKPISGHDYLFWYRQTMMRGLELLIYFNNNVPIDDSGMPEDRFSAKMPNASFSTLKIQPSEPRDSAVYFCASRKTGGYSNQPQHFGDGTRLSILE
V domain 2: SQQPVQSPQAVILREGEDAVINCSSSKALYSVHWYRQKHGEAPVFLMILLKGGEQKGHEKISASFNEKKQQSSLYLTASQLSYSGTYFCGTAWINDYKLSFGAGTTVTVRA
As to B1, the “Cumulative Fold Change in T cell number after stimulation 1 with OCI-AML3 cells pulsed with 500 nM VLD peptide, EP + AAV engineered T cells” value turned out to be 7.9 fold; the “Cumulative Fold Change in T cell number after stimulation 1 with OCI-AML3 cells pulsed with 500 nM VLD peptide, LNP + AAV engineered T cells” value came out at 7.2 fold; the “Cumulative Fold Change in T cell number after stimulation 2 with OCI-AML3 cells pulsed with 500 nM VLD peptide, EP + AAV engineered T cells” value came to 19 fold; the “Cumulative Fold Change in T cell number after stimulation 2 with OCI-AML3 cells pulsed with 500 nM VLD peptide, LNP + AAV engineered T cells” value was 34.2 fold. Moreover, the “Cumulative Fold Change in T cell number after stimulation 3 with OCI-AML3 cells pulsed with 500 nM VLD peptide, EP + AAV engineered T cells” value is 27.1 fold and the “Cumulative Fold Change in T cell number after stimulation 3 with OCI-AML3 cells pulsed with 500 nM VLD peptide, LNP + AAV engineered T cells” value stood at 120 fold.
